Results on six sequences are retold here after the DeepSol protein solubility set.

This data set in a line: soluble on expression in E. coli; label from the status in PepcDB or PDB records.
Turning to “SLQSNILAFTPPAPSASMNVNRTAVVSVTTKDSRAIQEIASYTKHGELIKLNASPSVTQLFQQVMQQNLISKGFRVGQLNGSNAWVTVDVREFGTQVEQGNLRYKLNTKIQATVYVQGAKGSYNKSFNVTHSQEGVFNAGNDEIHKVLSQTFNDIVNNIYQDQEVAAAINQYSN”, the “soluble on expression in E. coli” value is on record as “soluble”. In the case of “MGSDKIHHHHHHMEPEASPLFIDFAGISAGEKILDVGCGTGSLTFALLKAADLKEITAIDDSPVFVAETIRRSTDPRIKVEQGDACALAFDDGAFDRALALLVLHFVTDAGKAVAEMRRVVRPGGVVAASVWDHLGGMPGMRMMVDTVAALSEAGRQFRERYCFQPMMRPGEMKATFIEQGLLQVSETQLMIRMDYSNFDDYWSPMVAGEGPFGKFLSSLDAPDRARAEAAVREAYQAGQPDGPRSFANVAWACRGIAP” it was “not soluble”; in that of “GDKAYTDAESYTKGLHKIYSVWALSGQDGSSSSDISGLDAGNTALLRCWWTLQEQPTDEMKNAWNDAWCTEVNYMTWTTNKVEPIEGVYQRCMYIVALVNEFLKNIPNAPESIDKESYIAQARFNRAFAYYVLMDMFALPPFITEKNYSIEPAPLSREDLFNWIEAELNEIKPNLPSPRSEYGVADQAVASALLARMYLNAEIYTGKARYTECINACNEVIKAGYQLADNYADLFKADNGENPDTKKEIIYPIIFDGDKTQSWGMAAIIIGARGAEDKDVLLAHSGVDQGWAGFRATSNLVHLFDFQNDEEPKASEIQDKRGIFYDKGRSIDITSSVSGTFETEGWSVFKFSNLNSNGQPGKNTLWVDTDFPMFRLGDIYLMYAEAVARGGEGSKASAVEYINALRKRAYGDDKHNISENWLEENNFRNLLDERGRELYWEGIRRTDLVRFDLLTSGSYTWDFKGGINTGVGVNKRYNVYPIPVTDLTVNGNLQQNEGY”, “soluble”; in that of “MKLTLWTYEGPPHVGAMRVATAMKDLQLVLHGPQGATYADLLFTMIERRNARPPVSFSTFEASHMGTDTAILLKDALAAAHARYKPQAMAVALTCTAELLQDDPNGISRALNLPVPVVPLELPSYSRKENYGADETFRALVRALAVPMERTPEVTCNLLGATALGFRHRDDVAEVTKLLATMGIKVNVCAPLGASPDDLRKLGQAHFNVLMYPETGESAARHLERACKQPFTKIVPIGVGATRDFLAEVSKITGLPVVTDESTLRQPWWSASVDSTYLTGKRVFIFGDGTHVIAAARIAAKEVGFEVVGMGCYNREMARPLRTAAAEYGLEALITDDYLEVEKAIEAAAPELILGTQMERNIAKKLGLPCAVISAPVHVQDFPARYAPQMGFEGANVLFDTWVHPLVMGLEEHLLTMFREDFEFHDAAGASHHGGKAVAREESPVAPADLAPAATSDTPAAPSPVVVTQASGEIRWMPEAERELRKIPFFVRGKAKRNTELYAAHKGVCDITVETLYEAKAHYAR”, “soluble”. For “QVINTFDGVADYLQTYHKLPDNYITKSEAQALGWVASKGNLADVAPGKSIGGDIFSNREGKLPGKSGRTWREADINYTSGFRNSDRILYSSDWLIYKTTDAYQTFTKIRSSSMGVCPKILKKCRRDSDCLAGCVCGPNGFCGS”, the “soluble on expression in E. coli” value is “soluble”. In the case of “MGSDKIHHHHHHMDIKNKIKSIFLPEKNDYLDDEEFEYDIENNEEDLKEDNKVHLNDLSRVKYDYRELKDIENQTEEMCLLAVKQDGTIIEFVKDKTYKVCMEAVKQTYKSLKYITNQNEDICIEAVKQNYRALYYINNKTENVLIEAIKNASTYDVMEVFKFVEEQTEDVCLAFIERASKNDVAEILKGIKEQTPAICLEAVKKDGKSLAYVKEQSNSICLEAVKENYSALSCVKEQTEEICIEAVKQNDFALYYVNEQTEKICMEAVKRSYMALQYVNKQTEEICLEAVRIDGRALQYVKEQTEEICLESVRQNGKVLQYVKKQTENICIEAVRGSFEELEIKEILSYVKIPTERIFVEAVKQNGKILKYVENQTELICLEAVRENYNALAYVKEQTEKICLEAVNQSYEALKYVKEQTEEVCLKAVKQDYRMLKYVNNQTEKICLEAVKQNYRALEFVDNQTEKVCLEAVKQNRKALQYVKQKQS” it was “not soluble”.
